The target in this experiment is T1, GFP-fused TcsH CROPs (residues 1832–2618), His-tagged (Paeniclostridium sordellii, UniProt M9ZTT7 1832-2618).
T1 construct: source: Escherichia coli (pET28a vector), purified as His-tagged protein
T1 sequence: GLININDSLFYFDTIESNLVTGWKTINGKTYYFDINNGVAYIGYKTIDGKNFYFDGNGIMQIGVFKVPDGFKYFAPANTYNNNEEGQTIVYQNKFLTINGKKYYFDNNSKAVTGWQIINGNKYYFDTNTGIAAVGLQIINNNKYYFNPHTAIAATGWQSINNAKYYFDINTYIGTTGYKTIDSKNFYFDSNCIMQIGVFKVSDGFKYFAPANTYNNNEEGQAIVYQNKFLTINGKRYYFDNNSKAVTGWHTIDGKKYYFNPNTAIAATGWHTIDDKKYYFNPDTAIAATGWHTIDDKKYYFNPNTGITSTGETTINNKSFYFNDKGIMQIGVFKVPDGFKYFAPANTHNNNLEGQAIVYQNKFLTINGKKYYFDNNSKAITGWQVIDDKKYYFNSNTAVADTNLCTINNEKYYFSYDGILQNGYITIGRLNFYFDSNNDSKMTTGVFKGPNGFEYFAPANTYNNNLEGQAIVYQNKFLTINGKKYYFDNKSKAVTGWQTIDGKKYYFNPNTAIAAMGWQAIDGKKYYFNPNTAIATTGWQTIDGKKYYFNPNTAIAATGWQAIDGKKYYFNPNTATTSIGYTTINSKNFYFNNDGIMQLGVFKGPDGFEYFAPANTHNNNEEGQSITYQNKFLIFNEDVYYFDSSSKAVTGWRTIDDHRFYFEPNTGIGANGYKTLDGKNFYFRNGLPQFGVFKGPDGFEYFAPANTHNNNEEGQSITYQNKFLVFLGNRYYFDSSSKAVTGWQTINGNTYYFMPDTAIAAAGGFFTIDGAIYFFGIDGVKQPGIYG
The experiment is described as follows: BLI. Conditions: both partners purified.

B1: Fc-tagged TMPRSS2^106-492/[change] (ectodomain of human TMPRSS2 with [change]) (Fc fusion)
chain: WKFMGSKCSNSGIECDSSGTCINPSNWCDGVSHCPGGEDENRCVRLYGPNFILQVYSSQRKSWHPVCQDDWNENYGRAACRDMGYKNNFYSSQGIVDDSGSTSFMKLNTSAGNVDIYKKLYHSDACSSKAVVSLRCIACGVNLNSSRQSQIVGGESALPGAWPWQVSLHVQNVHVCGGSIITPEWIVTAAHCVEKPLNNPWHWTAFAGILRQSFMFYGAGYQVEKVISHPNYDSKTKNNDIALMKLQKPLTFNDLVKPVCLPNPGMMLQPEQLCWISGWGATEEKGKTSEVLNAAKVLLIETQRCNSRYVYDNLITPAMICAGFLQGNVDSCQGDSGGPLVTSKNNIWWLIGDTSWGSGCAKAYRPGVYGNVMVFTDWIYRQMRADG
As for B1, the Kd is approximately 5.23 nM.

The record behind these values is PMC9321280 (Nature Communications, 2022).
